Reference: patent publication US20110165145A1 (published 2011)
Substitutions are numbered along the chain they refer to. Blank lines part the entries; values can stand above or below the binder they belong to.

Tests used:
[1] = biological target: insulin-like growth factor I (IGF-I) (UniProt P05019 49-118); test: cell-based or functional assay
[2] = biological target: T1, IGF-IIE (amino acids 1-104 of pro-IGF-II) (human, UniProt P01344 25-128); test: competition SPR (BIACORE T100), affinity in solution, free ligand read on huIR-A ECD; measurement 2
T1 construct: Biotinylated in the selections; also called IGF-IIE (104aa)
Procedure: (§1) Competition SPR (BIACORE®) was performed under conditions of partially mass-transport limited conditions according to previously described methodology (Nieba et al., 1996). Approximately 16,700 relative response units (RU) of huIR-A (-exon11) ectodomain was coupled by standard amine chemistry to a BIACORE® CM5 chip sensor. Uncoated flow-cell surface was used as a reference. […] Regeneration of the surface was achieved by injection of 30 ul NaCltrate/NaCl pH 4.5. […] These Req estimates were subsequently plotted against total concentrations of Fab used and the resulting inhibition curve was utilised to calculate dissociation constant (KD).

[3] = biological target: T2, insulin-like growth factor II (IGF-II), amino acids 1-67 (human, UniProt P01344 25-91); test: as above
T2 construct: recombinant; also called IGF-II (67aa); IGF2
Procedure: as §1

[4] = biological target: T1, IGF-IIE (amino acids 1-104 of …); test: SPR (Flexchip), Fab, 1st of duplicate
[5] = biological target: T2, insulin-like growth factor II (IGF-II), …; test: SPR (Flexchip), Fab, 1st of duplicate
[6] = biological target: T1, IGF-IIE (amino acids 1-104 of …); test: cell-based or functional assay
[7] = biological target: T2, insulin-like growth factor II (IGF-II), …; test: cell-based or functional assay
[8] = biological target: T1, IGF-IIE (amino acids 1-104 of …); test: SPR (Flexchip), Fab, 2nd of duplicate
[9] = biological target: T2, insulin-like growth factor II (IGF-II), …; test: SPR (Flexchip), Fab, 2nd of duplicate
[10] = biological target: T1, IGF-IIE (amino acids 1-104 of …); test: competition SPR (BIACORE T100), affinity in solution, free ligand read on huIR-A ECD; measurement 1
Procedure: as §1

[11] = biological target: T2, insulin-like growth factor II (IGF-II), …; test: as above
Procedure: as §1

[12] = biological target: T1, IGF-IIE (amino acids 1-104 of …); test: SPR, IgG on Protein G', then ligand, then BP; competitor BP2; 0 = no significant competition, 5 = competes strongly
Procedure: (§2) BIACORE® T100 and a CM5 chip coated with Protein G were utilised to set up following assay. Approximately 1000 RU of Protein G′ was immobilized on a CM5 chip using standard amine chemistry immobilization method.
(§3) 4) Protein G′ surface was finally regenerated by injection of 10 mM Glycine pH 1.5-injected at 30 ul/min for 60 sec.

[13] = biological target: T2, insulin-like growth factor II (IGF-II), …; test: as above
Procedure: as §2, §3

[14] = biological target: T1, IGF-IIE (amino acids 1-104 of …); test: cell-based or functional assay; remark: listed apart in the source
[15] = biological target: T2, insulin-like growth factor II (IGF-II), …; test: cell-based or functional assay; remark: listed apart in the source
[16] = biological target: T1, IGF-IIE (amino acids 1-104 of …); test: SPR, IgG on Protein G', then ligand, then BP; competitor BP4; 0 = no significant competition, 5 = competes strongly
Procedure: as §2, §3

[17] = biological target: T2, insulin-like growth factor II (IGF-II), …; test: as above
Procedure: as §2, §3

[18] = biological target: T1, IGF-IIE (amino acids 1-104 of …); test: SPR (BIACORE), IgG
[19] = biological target: T2, insulin-like growth factor II (IGF-II), …; test: SPR (BIACORE), IgG
[20] = biological target: T3, IGF binding protein 2 (BP2) (UniProt P18065 36-325); test: SPR (BIACORE T100): BP2 injected over M0064-E04 IgG captured on Protein G', with buffer in place of IGF-II
T3 construct: also called IGF BP2
T3 sequence (looked up): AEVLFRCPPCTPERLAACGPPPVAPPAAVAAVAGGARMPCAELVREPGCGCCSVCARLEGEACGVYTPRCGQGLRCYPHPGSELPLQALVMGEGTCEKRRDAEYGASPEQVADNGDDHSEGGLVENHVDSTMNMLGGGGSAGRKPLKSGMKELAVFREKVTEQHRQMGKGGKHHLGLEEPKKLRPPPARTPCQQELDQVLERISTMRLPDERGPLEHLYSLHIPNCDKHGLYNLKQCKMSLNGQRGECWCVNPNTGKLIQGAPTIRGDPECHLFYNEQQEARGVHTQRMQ

[21] = biological target: T4, IGF binding protein 4 (BP4) (UniProt P22692 22-258); test: SPR (BIACORE T100): BP4 injected over M0064-E04 IgG captured on Protein G', with buffer in place of IGF-II
T4 construct: also called IGF BP4
T4 sequence (looked up): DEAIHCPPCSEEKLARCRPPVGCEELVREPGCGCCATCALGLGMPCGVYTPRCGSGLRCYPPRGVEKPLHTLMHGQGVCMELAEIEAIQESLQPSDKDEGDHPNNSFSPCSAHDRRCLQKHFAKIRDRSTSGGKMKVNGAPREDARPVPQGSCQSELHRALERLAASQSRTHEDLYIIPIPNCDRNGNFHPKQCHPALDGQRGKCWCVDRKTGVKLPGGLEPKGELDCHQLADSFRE

T2 sequence (P01344 25-91): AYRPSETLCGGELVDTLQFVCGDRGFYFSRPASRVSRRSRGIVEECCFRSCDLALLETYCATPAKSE
T1 sequence (P01344 25-128): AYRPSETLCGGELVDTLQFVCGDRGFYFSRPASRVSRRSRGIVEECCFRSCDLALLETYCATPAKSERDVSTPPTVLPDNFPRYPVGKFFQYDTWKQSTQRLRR
Sequence of insulin-like growth factor I (IGF-I) (P05019 49-118 limits assumed): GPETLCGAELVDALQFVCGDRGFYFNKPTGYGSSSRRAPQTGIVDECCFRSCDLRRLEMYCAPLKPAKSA

B1: M0063-F02 Fab (Fab, V domains shown)
VH: EVQLLESGGGLVQPGGSLRLSCAASGFTFSKYEMDWVRQAPGKGLEWVSVISSSGGGTIYADSVKGRFTISRDNSKNTLYLQMNSLRAEDTAMYYCARGRTLYGGAFDIWGQGTMVTVSS
VL: DIQMTQSPSSLSASVGDRVTITCRASQPINTYLNWYQQRPGKAPRILIYTSSTLQSGVPSRFSGSGSGTDFTLTISSVQPEDFATYYCQQSYSFPLTFGGGTKVEIKR
notes: soluble Fab (sFab); also called R0032-A01
- IGF-I stimulated Ba/F3 cell proliferation, sFab at 50 µg/ml [1]: ~30 % inhibition
- Kd [2]: 1.47 nM
- Kd [3]: 0.858 nM
- Kd [4]: 0.12 nM
- Kd [5]: 0.77 nM
- IC50, IGF-IIE stimulated Ba/F3 cell proliferation (MTS) [6]: 2.04 mg/L
- IC50, IGF-II stimulated Ba/F3 cell proliferation (MTS) [7]: 5.56 mg/L
- Kd [8]: 0.2 nM
- Kd [9]: 1.6 nM
- Kd [10]: 2.78 nM
- Kd [11]: 1.17 nM

B2: M0063-F02 IgG (parental) (antibody, V domains shown)
VH: B1 VH
VL: DIQMTQSPSSLSASVGDRVTITCRASQPINTYLNWYQQRPGKAPRILIYTSSTLQSGVPSRFSGSGSGTDFTLTISSVQPEDFATYYCQQSYSFPLTFGGGTKVEIK
- competition score [12]: 1 score 0-5
- competition score [13]: 1 score 0-5
- IC50, IGF-IIE stimulated Ba/F3 cell proliferation (Guava ViaCount) [14]: 0.85 nM
- IC50, IGF-IIE stimulated Ba/F3 cell proliferation (Guava ViaCount), second study [14]: ~10 nM
- IC50, IGF-II stimulated Ba/F3 cell proliferation (Guava ViaCount) [15]: 2 nM
- IC50, IGF-II stimulated Ba/F3 cell proliferation (Guava ViaCount), second study [15]: ~7 nM
- competition score [16]: 1 score 0-5
- competition score [17]: 0 score 0-5

B4: X0008-A01 (germlined M0064-F02 IgG) (antibody, V domains shown)
VH: EVQLLESGGGLVQPGGSLRLSCAASGFTFSNYIMWWVRQAPGKGLEWVSVISSSGGMTRYADSVKGRFTISRDNSKNTLYLQMNSLRAEDTAVYYCARDNGDYVGEKGFDIWGQGTMVTVSS
VL: DIQMTQSPSSLSASVGDRVTITCRASQSISNYLNWYQQKPGKAPKLLIYTASTLQSGVPSRFSGSGSGTDFTLTISSLQPEDFATYYCQQSYNSPWTFGQGTKVEIK
- Kd [18]: < 0.023 nM
- Kd [19]: 0.023 nM

Continued, values first:

- competition score [12]: 4 score 0-5
- competition score [13]: 4 score 0-5
- competition score [16]: 4 score 0-5
- competition score [17]: 4 score 0-5
- Kd [18]: 0.032 nM
- Kd [19]: 0.14 nM
B3: M0064-F02 IgG (parental, non-germlined) (antibody, V domains shown)
VH: B4 VH
VL: B4 VL with G66A, S76N, Y87S

- IGF-I stimulated Ba/F3 cell proliferation, sFab at 50 µg/ml [1]: ~30 % inhibition
- Kd [2]: 0.424 nM
- Kd [3]: 1.11 nM
- Kd [4]: 0.093 nM
- Kd [5]: 0.12 nM
- IC50, IGF-IIE stimulated Ba/F3 cell proliferation (MTS) [6]: 5.46 mg/L
- IC50, IGF-II stimulated Ba/F3 cell proliferation (MTS) [7]: 3.04 mg/L
- Kd [8]: 0.12 nM
- Kd [9]: 0.25 nM
- Kd [10]: 0.429 nM
- Kd [11]: 0.608 nM
B5: M0064-E04 Fab (Fab, V domains shown)
VH: EVQLLESGGGLVQPGGSLRLSCAASGFTFSVYDMNWVRQAPGKGLEWVSSISSSGGGTLYADSVKGRFTISRDNSKNTLYLQMNSLRAEDTAVYYCARDSDTSSYYWYYDLWGRGTLVTVSS
VL: DIQMTQSPSSLSASVGDRVTITCQASHDISNYLNWYQQKPGKAPKLLIYAASRLQSGVPSRFSGGGSGTDFSLTISSLQAEDFATYYCQQSYSFPRTFGQGTNLEIKR
notes: soluble Fab (sFab); also called R0032-A03; 566A-M0064-E04

- competition score [12]: 4 score 0-5
- competition score [13]: 5 score 0-5
- IC50, IGF-IIE stimulated Ba/F3 cell proliferation (Guava ViaCount) [14]: ~130 nM
- IC50, IGF-II stimulated Ba/F3 cell proliferation (Guava ViaCount) [15]: ~19 nM
- competition score [16]: 4 score 0-5
- competition score [17]: 5 score 0-5
- binding result [20]: no binding (tested: 50.0 nM)
- Kd [18]: 0.24 nM
- Kd [19]: 0.52 nM
- binding result [21]: no binding (tested: 50.0 nM)
B6: M0064-E04 IgG (parental, non-germlined) (antibody, V domains shown)
VH: B5 VH
VL: DIQMTQSPSSLSASVGDRVTITCQASHDISNYLNWYQQKPGKAPKLLIYAASRLQSGVPSRFSGGGSGTDFSLTISSLQAEDFATYYCQQSYSFPRTFGQGTNLEIK
